Paper PMC4288923

How the values were obtained:
[1] = molecular target: Slr1270 protein from Synechocystis 6803, refolded, C-terminal His tag (Synechocystis 6803); assay: SEC
[2] = molecular target: Slr1270 protein from Synechocystis 6803, refolded, C-terminal His tag (Synechocystis 6803); assay: native gel or EMSA
[3] = molecular target: Slr1270 protein from Synechocystis 6803, refolded, C-terminal His tag (Synechocystis 6803); assay: SDS-PAGE without boiling

Measured: stoichiometry N

Slr1270 protein from Synechocystis 6803, refolded, C-terminal His tag (natural protein)
3: all assays above
